Source: article doi:10.1101/2021.06.15.448428

How the values were obtained:
Experiment in all cases: co-IP
[1] = target: Pdr5*-Myc (S. cerevisiae) (UniProt P33302)
[2] = target: Ste6*-GFP (S. cerevisiae) (UniProt P12866)
Hmg2-GFP (S. cerevisiae) = Hmg2-GFP (S. cerevisiae) (UniProt P12684)

Measured: fraction bound compared to wildtype Dfm1

UniProt P12866, sequence (P12866 whole entry): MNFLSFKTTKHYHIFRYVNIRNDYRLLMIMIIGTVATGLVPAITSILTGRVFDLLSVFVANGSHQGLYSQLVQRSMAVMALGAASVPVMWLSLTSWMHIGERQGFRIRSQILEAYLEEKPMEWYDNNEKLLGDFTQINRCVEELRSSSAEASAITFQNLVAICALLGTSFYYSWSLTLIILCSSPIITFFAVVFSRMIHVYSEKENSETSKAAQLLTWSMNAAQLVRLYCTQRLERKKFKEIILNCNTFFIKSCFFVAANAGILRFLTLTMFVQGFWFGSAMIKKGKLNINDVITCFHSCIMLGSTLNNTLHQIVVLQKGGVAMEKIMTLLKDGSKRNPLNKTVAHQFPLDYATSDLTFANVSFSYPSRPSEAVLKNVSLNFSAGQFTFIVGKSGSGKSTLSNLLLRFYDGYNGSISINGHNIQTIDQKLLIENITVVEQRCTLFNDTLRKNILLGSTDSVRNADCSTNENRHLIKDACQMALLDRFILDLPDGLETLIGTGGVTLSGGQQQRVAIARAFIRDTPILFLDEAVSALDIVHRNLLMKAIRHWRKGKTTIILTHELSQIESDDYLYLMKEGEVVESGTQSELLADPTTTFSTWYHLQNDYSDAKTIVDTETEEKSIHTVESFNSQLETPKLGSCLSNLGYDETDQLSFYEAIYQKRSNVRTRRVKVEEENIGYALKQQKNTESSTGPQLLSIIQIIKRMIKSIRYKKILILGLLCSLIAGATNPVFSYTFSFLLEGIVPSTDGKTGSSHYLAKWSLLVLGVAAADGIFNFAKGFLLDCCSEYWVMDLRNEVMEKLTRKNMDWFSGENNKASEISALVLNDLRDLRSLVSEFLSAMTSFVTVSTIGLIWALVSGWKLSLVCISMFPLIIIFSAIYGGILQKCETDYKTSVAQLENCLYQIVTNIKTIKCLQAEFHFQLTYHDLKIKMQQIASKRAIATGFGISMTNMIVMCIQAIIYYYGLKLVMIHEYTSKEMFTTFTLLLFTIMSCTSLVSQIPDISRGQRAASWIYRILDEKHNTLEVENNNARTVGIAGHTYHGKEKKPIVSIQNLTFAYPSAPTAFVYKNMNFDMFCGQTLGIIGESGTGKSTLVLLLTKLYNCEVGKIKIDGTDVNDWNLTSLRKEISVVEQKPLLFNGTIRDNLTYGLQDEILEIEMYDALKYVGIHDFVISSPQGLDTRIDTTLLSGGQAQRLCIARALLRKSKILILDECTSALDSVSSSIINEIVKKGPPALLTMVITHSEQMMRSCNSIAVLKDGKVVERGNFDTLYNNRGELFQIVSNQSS
UniProt P33302, sequence (P33302 whole entry): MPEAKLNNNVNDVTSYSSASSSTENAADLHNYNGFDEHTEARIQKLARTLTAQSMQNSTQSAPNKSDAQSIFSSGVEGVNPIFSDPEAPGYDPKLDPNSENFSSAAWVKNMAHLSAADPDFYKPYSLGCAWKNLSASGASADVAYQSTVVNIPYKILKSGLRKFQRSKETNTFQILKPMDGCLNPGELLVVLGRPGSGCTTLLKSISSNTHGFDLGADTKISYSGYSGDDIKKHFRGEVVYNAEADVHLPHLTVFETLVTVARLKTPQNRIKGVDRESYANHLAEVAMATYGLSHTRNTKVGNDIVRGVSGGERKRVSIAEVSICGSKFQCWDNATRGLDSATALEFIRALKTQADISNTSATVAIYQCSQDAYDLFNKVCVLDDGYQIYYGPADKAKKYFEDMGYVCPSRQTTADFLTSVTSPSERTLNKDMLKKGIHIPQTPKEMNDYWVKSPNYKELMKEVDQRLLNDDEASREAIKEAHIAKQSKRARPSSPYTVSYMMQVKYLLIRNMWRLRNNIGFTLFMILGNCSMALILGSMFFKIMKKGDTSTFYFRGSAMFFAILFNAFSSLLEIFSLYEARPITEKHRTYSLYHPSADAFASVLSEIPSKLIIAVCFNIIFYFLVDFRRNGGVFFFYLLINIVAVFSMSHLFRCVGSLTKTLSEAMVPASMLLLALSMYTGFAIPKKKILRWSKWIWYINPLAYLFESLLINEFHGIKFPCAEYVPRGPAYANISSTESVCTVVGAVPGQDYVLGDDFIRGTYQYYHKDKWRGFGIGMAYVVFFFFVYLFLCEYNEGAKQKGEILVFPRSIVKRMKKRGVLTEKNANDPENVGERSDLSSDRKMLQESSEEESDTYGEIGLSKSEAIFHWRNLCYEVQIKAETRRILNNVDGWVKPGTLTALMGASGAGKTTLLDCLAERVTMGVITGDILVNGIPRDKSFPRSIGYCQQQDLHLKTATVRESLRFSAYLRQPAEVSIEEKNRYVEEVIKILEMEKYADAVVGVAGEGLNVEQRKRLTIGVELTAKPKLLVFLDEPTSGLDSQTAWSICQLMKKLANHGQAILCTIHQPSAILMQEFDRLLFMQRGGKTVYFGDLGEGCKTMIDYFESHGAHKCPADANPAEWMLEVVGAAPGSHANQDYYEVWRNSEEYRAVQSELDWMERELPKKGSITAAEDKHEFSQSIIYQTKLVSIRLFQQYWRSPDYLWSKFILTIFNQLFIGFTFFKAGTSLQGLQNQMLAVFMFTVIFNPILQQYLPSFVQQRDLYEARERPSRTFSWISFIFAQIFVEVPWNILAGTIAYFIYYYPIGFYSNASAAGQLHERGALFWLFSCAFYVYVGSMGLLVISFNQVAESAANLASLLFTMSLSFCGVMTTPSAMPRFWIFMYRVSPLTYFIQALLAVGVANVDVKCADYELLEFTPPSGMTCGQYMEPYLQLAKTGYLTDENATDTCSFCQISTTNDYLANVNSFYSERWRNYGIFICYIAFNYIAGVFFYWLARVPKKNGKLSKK
UniProt P12684, sequence (P12684 whole entry): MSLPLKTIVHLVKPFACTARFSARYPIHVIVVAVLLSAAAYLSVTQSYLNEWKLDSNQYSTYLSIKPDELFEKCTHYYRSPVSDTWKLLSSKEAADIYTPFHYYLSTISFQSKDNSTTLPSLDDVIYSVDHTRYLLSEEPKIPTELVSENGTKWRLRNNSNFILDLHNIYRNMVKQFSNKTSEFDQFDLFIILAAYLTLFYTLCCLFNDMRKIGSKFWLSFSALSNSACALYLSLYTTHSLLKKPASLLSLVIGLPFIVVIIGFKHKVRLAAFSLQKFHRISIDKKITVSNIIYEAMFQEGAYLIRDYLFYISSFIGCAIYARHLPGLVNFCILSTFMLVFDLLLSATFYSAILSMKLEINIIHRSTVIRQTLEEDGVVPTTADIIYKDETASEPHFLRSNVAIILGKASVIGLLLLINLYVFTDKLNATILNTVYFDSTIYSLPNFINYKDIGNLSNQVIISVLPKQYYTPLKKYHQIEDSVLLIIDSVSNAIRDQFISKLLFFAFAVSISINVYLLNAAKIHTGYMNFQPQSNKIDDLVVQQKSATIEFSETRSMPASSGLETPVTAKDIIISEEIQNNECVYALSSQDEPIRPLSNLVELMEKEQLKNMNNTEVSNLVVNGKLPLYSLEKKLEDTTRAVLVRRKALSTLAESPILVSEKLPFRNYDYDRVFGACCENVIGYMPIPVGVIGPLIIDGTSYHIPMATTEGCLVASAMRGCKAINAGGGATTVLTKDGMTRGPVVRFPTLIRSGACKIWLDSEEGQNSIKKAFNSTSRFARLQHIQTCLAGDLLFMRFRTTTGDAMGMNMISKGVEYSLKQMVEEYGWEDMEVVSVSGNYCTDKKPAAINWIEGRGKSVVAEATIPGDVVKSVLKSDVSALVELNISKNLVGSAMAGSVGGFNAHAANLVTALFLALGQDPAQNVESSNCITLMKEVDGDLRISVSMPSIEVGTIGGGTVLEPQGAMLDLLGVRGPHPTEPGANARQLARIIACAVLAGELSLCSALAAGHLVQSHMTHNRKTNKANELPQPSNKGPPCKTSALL

Dfm1-5Ashp (from UniProt Q12743 1-341) (natural protein)
< 5%: all assays above
